Assay results: US20230192789A1, “STRUCTURALLY-STABILIZED AND HDMX-SELECTIVE P53 PEPTIDES AND USES THEREOF” (Dana-Farber Cancer Institute, Inc., priority 2020, published 2023)
Bridges are numbered along the chain shown (N, C = ends). [ ]: non-standard residue; d: D form. The star is where a group is joined. Biotin = O=C1N[C@H]2[C@H](CS[C@H]2CCCCC(=O)*)N1; R8 = C=CCCCCCC[C@@](C)(N)C(=O)O; S5 = C=CCCC[C@](C)(N)C(=O)O

Target: T1, recombinant HDM2 (amino acids 17-125 of SEQ ID NO:103) (human, UniProt Q00987 17-125)
T1 construct: also called MDM2; not shown: thrombin cleavage site (pET28a vector)
Test: streptavidin pull-down of biotinylated peptide with recombinant HDM2 and HDMX (1:1 mixture per paragraph 301), western blot

T1 sequence (Q00987 other isoform, or with tags, fused parts or gaps): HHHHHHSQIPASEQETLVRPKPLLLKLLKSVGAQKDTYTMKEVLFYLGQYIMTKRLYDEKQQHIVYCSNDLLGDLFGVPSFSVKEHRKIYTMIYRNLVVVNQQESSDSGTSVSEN

B1: ATSP-7041 B26D (peptide)
peptide: Biotin-LTF[R8]EYWAQD[S5]SAA-NH2
modifications: staple 4-11
SMILES: CC(C)C[C@H](NC(=O)CCCC[C@@H]1SC[C@@H]2NC(=O)N[C@@H]21)C(=O)N[C@H](C(=O)N[C@@H](Cc1ccccc1)C(=O)N[C@]1(C)CCCCCCC=CCCC[C@@](C)(C(=O)N[C@@H](CO)C(=O)N[C@@H](C)C(=O)N[C@@H](C)C(N)=O)NC(=O)[C@H](CC(=O)O)NC(=O)[C@H](CCC(N)=O)NC(=O)[C@H](C)NC(=O)[C@H](Cc2c[nH]c3ccccc23)NC(=O)[C@H](Cc2ccc(O)cc2)NC(=O)[C@H](CCC(=O)O)NC1=O)[C@@H](C)O
B1: no binding.

B2: ATSP-7041 B26Y (peptide)
peptide: Biotin-LTF[R8]EYWAQY[S5]SAA-NH2
modifications: staple 4-11
SMILES: CC(C)C[C@H](NC(=O)CCCC[C@@H]1SC[C@@H]2NC(=O)N[C@@H]21)C(=O)N[C@H](C(=O)N[C@@H](Cc1ccccc1)C(=O)N[C@]1(C)CCCCCCC=CCCC[C@@](C)(C(=O)N[C@@H](CO)C(=O)N[C@@H](C)C(=O)N[C@@H](C)C(N)=O)NC(=O)[C@H](Cc2ccc(O)cc2)NC(=O)[C@H](CCC(N)=O)NC(=O)[C@H](C)NC(=O)[C@H](Cc2c[nH]c3ccccc23)NC(=O)[C@H](Cc2ccc(O)cc2)NC(=O)[C@H](CCC(=O)O)NC1=O)[C@@H](C)O
B2: no binding.

B3: ATSP-7041 B26K (peptide)
peptide: Biotin-LTF[R8]EYWAQK[S5]SAA-NH2
modifications: staple 4-11
SMILES: CC(C)C[C@H](NC(=O)CCCC[C@@H]1SC[C@@H]2NC(=O)N[C@@H]21)C(=O)N[C@H](C(=O)N[C@@H](Cc1ccccc1)C(=O)N[C@]1(C)CCCCCCC=CCCC[C@@](C)(C(=O)N[C@@H](CO)C(=O)N[C@@H](C)C(=O)N[C@@H](C)C(N)=O)NC(=O)[C@H](CCCCN)NC(=O)[C@H](CCC(N)=O)NC(=O)[C@H](C)NC(=O)[C@H](Cc2c[nH]c3ccccc23)NC(=O)[C@H](Cc2ccc(O)cc2)NC(=O)[C@H](CCC(=O)O)NC1=O)[C@@H](C)O
B3: no binding.

B4: ATSP-7041 B26P (peptide)
peptide: Biotin-LTF[R8]EYWAQP[S5]SAA-NH2
modifications: staple 4-11
SMILES: CC(C)C[C@H](NC(=O)CCCC[C@@H]1SC[C@@H]2NC(=O)N[C@@H]21)C(=O)N[C@H](C(=O)N[C@@H](Cc1ccccc1)C(=O)N[C@]1(C)CCCCCCC=CCCC[C@@](C)(C(=O)N[C@@H](CO)C(=O)N[C@@H](C)C(=O)N[C@@H](C)C(N)=O)NC(=O)[C@@H]2CCCN2C(=O)[C@H](CCC(N)=O)NC(=O)[C@H](C)NC(=O)[C@H](Cc2c[nH]c3ccccc23)NC(=O)[C@H](Cc2ccc(O)cc2)NC(=O)[C@H](CCC(=O)O)NC1=O)[C@@H](C)O
B4: no binding.

B5: ATSP-7041 B26H (peptide)
peptide: Biotin-LTF[R8]EYWAQH[S5]SAA-NH2
modifications: staple 4-11
SMILES: CC(C)C[C@H](NC(=O)CCCC[C@@H]1SC[C@@H]2NC(=O)N[C@@H]21)C(=O)N[C@H](C(=O)N[C@@H](Cc1ccccc1)C(=O)N[C@]1(C)CCCCCCC=CCCC[C@@](C)(C(=O)N[C@@H](CO)C(=O)N[C@@H](C)C(=O)N[C@@H](C)C(N)=O)NC(=O)[C@H](Cc2c[nH]cn2)NC(=O)[C@H](CCC(N)=O)NC(=O)[C@H](C)NC(=O)[C@H](Cc2c[nH]c3ccccc23)NC(=O)[C@H](Cc2ccc(O)cc2)NC(=O)[C@H](CCC(=O)O)NC1=O)[C@@H](C)O
B5: no binding.

B6: ATSP-7041 B26V (peptide)
peptide: Biotin-LTF[R8]EYWAQV[S5]SAA-NH2
modifications: staple 4-11
SMILES: CC(C)C[C@H](NC(=O)CCCC[C@@H]1SC[C@@H]2NC(=O)N[C@@H]21)C(=O)N[C@H](C(=O)N[C@@H](Cc1ccccc1)C(=O)N[C@]1(C)CCCCCCC=CCCC[C@@](C)(C(=O)N[C@@H](CO)C(=O)N[C@@H](C)C(=O)N[C@@H](C)C(N)=O)NC(=O)[C@H](C(C)C)NC(=O)[C@H](CCC(N)=O)NC(=O)[C@H](C)NC(=O)[C@H](Cc2c[nH]c3ccccc23)NC(=O)[C@H](Cc2ccc(O)cc2)NC(=O)[C@H](CCC(=O)O)NC1=O)[C@@H](C)O
B6: no binding.

B7: ATSP-7041 B26Q (peptide)
peptide: Biotin-LTF[R8]EYWAQQ[S5]SAA-NH2
modifications: staple 4-11
SMILES: CC(C)C[C@H](NC(=O)CCCC[C@@H]1SC[C@@H]2NC(=O)N[C@@H]21)C(=O)N[C@H](C(=O)N[C@@H](Cc1ccccc1)C(=O)N[C@]1(C)CCCCCCC=CCCC[C@@](C)(C(=O)N[C@@H](CO)C(=O)N[C@@H](C)C(=O)N[C@@H](C)C(N)=O)NC(=O)[C@H](CCC(N)=O)NC(=O)[C@H](CCC(N)=O)NC(=O)[C@H](C)NC(=O)[C@H](Cc2c[nH]c3ccccc23)NC(=O)[C@H](Cc2ccc(O)cc2)NC(=O)[C@H](CCC(=O)O)NC1=O)[C@@H](C)O
B7: no binding.

B8: ATSP-7041 B26S (peptide)
peptide: Biotin-LTF[R8]EYWAQS[S5]SAA-NH2
modifications: staple 4-11
SMILES: CC(C)C[C@H](NC(=O)CCCC[C@@H]1SC[C@@H]2NC(=O)N[C@@H]21)C(=O)N[C@H](C(=O)N[C@@H](Cc1ccccc1)C(=O)N[C@]1(C)CCCCCCC=CCCC[C@@](C)(C(=O)N[C@@H](CO)C(=O)N[C@@H](C)C(=O)N[C@@H](C)C(N)=O)NC(=O)[C@H](CO)NC(=O)[C@H](CCC(N)=O)NC(=O)[C@H](C)NC(=O)[C@H](Cc2c[nH]c3ccccc23)NC(=O)[C@H](Cc2ccc(O)cc2)NC(=O)[C@H](CCC(=O)O)NC1=O)[C@@H](C)O
B8: no binding.

B9: ATSP-7041 B26W (peptide)
peptide: Biotin-LTF[R8]EYWAQW[S5]SAA-NH2
modifications: staple 4-11
SMILES: CC(C)C[C@H](NC(=O)CCCC[C@@H]1SC[C@@H]2NC(=O)N[C@@H]21)C(=O)N[C@H](C(=O)N[C@@H](Cc1ccccc1)C(=O)N[C@]1(C)CCCCCCC=CCCC[C@@](C)(C(=O)N[C@@H](CO)C(=O)N[C@@H](C)C(=O)N[C@@H](C)C(N)=O)NC(=O)[C@H](Cc2c[nH]c3ccccc23)NC(=O)[C@H](CCC(N)=O)NC(=O)[C@H](C)NC(=O)[C@H](Cc2c[nH]c3ccccc23)NC(=O)[C@H](Cc2ccc(O)cc2)NC(=O)[C@H](CCC(=O)O)NC1=O)[C@@H](C)O
B9: no binding.

B10: ATSP-7041 B26N (peptide)
peptide: Biotin-LTF[R8]EYWAQN[S5]SAA-NH2
modifications: staple 4-11
SMILES: CC(C)C[C@H](NC(=O)CCCC[C@@H]1SC[C@@H]2NC(=O)N[C@@H]21)C(=O)N[C@H](C(=O)N[C@@H](Cc1ccccc1)C(=O)N[C@]1(C)CCCCCCC=CCCC[C@@](C)(C(=O)N[C@@H](CO)C(=O)N[C@@H](C)C(=O)N[C@@H](C)C(N)=O)NC(=O)[C@H](CC(N)=O)NC(=O)[C@H](CCC(N)=O)NC(=O)[C@H](C)NC(=O)[C@H](Cc2c[nH]c3ccccc23)NC(=O)[C@H](Cc2ccc(O)cc2)NC(=O)[C@H](CCC(=O)O)NC1=O)[C@@H](C)O
B10: no binding.

B11: ATSP-7041 B26T (peptide)
peptide: Biotin-LTF[R8]EYWAQT[S5]SAA-NH2
modifications: staple 4-11
SMILES: CC(C)C[C@H](NC(=O)CCCC[C@@H]1SC[C@@H]2NC(=O)N[C@@H]21)C(=O)N[C@H](C(=O)N[C@@H](Cc1ccccc1)C(=O)N[C@]1(C)CCCCCCC=CCCC[C@@](C)(C(=O)N[C@@H](CO)C(=O)N[C@@H](C)C(=O)N[C@@H](C)C(N)=O)NC(=O)[C@H]([C@@H](C)O)NC(=O)[C@H](CCC(N)=O)NC(=O)[C@H](C)NC(=O)[C@H](Cc2c[nH]c3ccccc23)NC(=O)[C@H](Cc2ccc(O)cc2)NC(=O)[C@H](CCC(=O)O)NC1=O)[C@@H](C)O
B11: no binding.

B12: ATSP-7041 B26R (peptide)
peptide: Biotin-LTF[R8]EYWAQR[S5]SAA-NH2
modifications: staple 4-11
SMILES: CC(C)C[C@H](NC(=O)CCCC[C@@H]1SC[C@@H]2NC(=O)N[C@@H]21)C(=O)N[C@H](C(=O)N[C@@H](Cc1ccccc1)C(=O)N[C@]1(C)CCCCCCC=CCCC[C@@](C)(C(=O)N[C@@H](CO)C(=O)N[C@@H](C)C(=O)N[C@@H](C)C(N)=O)NC(=O)[C@H](CCCNC(=N)N)NC(=O)[C@H](CCC(N)=O)NC(=O)[C@H](C)NC(=O)[C@H](Cc2c[nH]c3ccccc23)NC(=O)[C@H](Cc2ccc(O)cc2)NC(=O)[C@H](CCC(=O)O)NC1=O)[C@@H](C)O
B12: no binding.

B13: ATSP-7041 B26G (peptide)
peptide: Biotin-LTF[R8]EYWAQG[S5]SAA-NH2
modifications: staple 4-11
SMILES: CC(C)C[C@H](NC(=O)CCCC[C@@H]1SC[C@@H]2NC(=O)N[C@@H]21)C(=O)N[C@H](C(=O)N[C@@H](Cc1ccccc1)C(=O)N[C@]1(C)CCCCCCC=CCCC[C@@](C)(C(=O)N[C@@H](CO)C(=O)N[C@@H](C)C(=O)N[C@@H](C)C(N)=O)NC(=O)CNC(=O)[C@H](CCC(N)=O)NC(=O)[C@H](C)NC(=O)[C@H](Cc2c[nH]c3ccccc23)NC(=O)[C@H](Cc2ccc(O)cc2)NC(=O)[C@H](CCC(=O)O)NC1=O)[C@@H](C)O
B13: no binding.
